Measurements reported in paper PMC9351570.

Target: nucleosome: recombinant Xenopus laevis histone octamer assembled on 601 DNA with flanking DNA (Xenopus laevis)

nucleosome sliding, native gel remodeling assay, kobs; 601 + 80 WT nucleosome: 0.006 min⁻¹
Substance: mutant INO80 complex purified from yeast lacking Arp5 (from UniProt P53115 1-1489; P40154 1-320; Q12386 1-881)
